Laboratory results published in publication PMC10397247.

T1: P4S
T1 chain: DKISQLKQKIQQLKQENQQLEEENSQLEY

T2: P4
T2 chain: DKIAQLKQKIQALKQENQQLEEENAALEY

T3: 4H3865-AA
T3 chain: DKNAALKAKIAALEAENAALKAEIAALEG

T4: 4H32-AA
T4 chain: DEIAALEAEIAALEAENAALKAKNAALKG

T5: 4H3588-AA
T5 chain: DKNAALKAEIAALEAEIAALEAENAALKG

T6: 4H3378-AA
T6 chain: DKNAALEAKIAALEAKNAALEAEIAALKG

T7: 4H3133-AA
T7 chain: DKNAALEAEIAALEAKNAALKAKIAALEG

T8: 4H384-AA
T8 chain: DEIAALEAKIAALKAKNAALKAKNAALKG

T9: 4H3718-AA
T9 chain: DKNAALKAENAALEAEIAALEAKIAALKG

T10: 4H3606-AA
T10 chain: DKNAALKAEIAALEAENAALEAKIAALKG

T11: 4H697-AA
T11 chain: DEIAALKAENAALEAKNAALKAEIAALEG

T12: 4H3697-AA
T12 chain: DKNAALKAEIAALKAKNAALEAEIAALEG

T13: 4H3162-AA
T13 chain: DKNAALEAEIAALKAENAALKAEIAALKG

T14: 4H3590-AA
T14 chain: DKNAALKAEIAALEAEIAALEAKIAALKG

T15: 4H3631-AA
T15 chain: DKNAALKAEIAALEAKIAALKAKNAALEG

T16: 4H3056-AA
T16 chain: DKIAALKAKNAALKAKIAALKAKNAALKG

T17: 4H340-AA
T17 chain: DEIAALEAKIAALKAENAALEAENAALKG

T18: 4H3413-AA
T18 chain: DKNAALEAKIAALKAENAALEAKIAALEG

T19: 4H982-AA
T19 chain: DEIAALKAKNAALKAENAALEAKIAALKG

T20: Core_ININ-es_EEEE
T20 chain: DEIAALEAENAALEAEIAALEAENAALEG


Experiments:
Test in all cases: two-hybrid library CCmax;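 further: natural log of median RNA to DNA barcode read ratio; higher means stronger binding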
[1] = target: T1, P4S; details: mean of both orientations
[2] = target: T2, P4; details: mean of both orientations
[3] = target: T3, 4H3865-AA; details: mean of both orientations
[4] = target: T4, 4H32-AA; details: mean of both orientations
[5] = target: T5, 4H3588-AA; details: mean of both orientations
[6] = target: T6, 4H3378-AA; details: mean of both orientations
[7] = target: T7, 4H3133-AA; details: mean of both orientations
[8] = target: T8, 4H384-AA; details: mean of both orientations
[9] = target: T9, 4H3718-AA; details: mean of both orientations
[10] = target: T10, 4H3606-AA; details: mean of both orientations
[11] = target: T11, 4H697-AA; details: mean of both orientations
[12] = target: T12, 4H3697-AA; details: mean of both orientations
[13] = target: T13, 4H3162-AA; details: mean of both orientations
[14] = target: T14, 4H3590-AA
[15] = target: T15, 4H3631-AA; details: mean of both orientations
[16] = target: T16, 4H3056-AA
[17] = target: T17, 4H340-AA; details: mean of both orientations
[18] = target: T18, 4H3413-AA; details: mean of both orientations
[19] = target: T19, 4H982-AA; details: mean of both orientations
[20] = target: T20, Core_ININ-es_EEEE; details: mean of both orientations

| interaction score [1] | interaction score [2] | interaction score [3] | interaction score [4] | interaction score [5] | interaction score [6] | interaction score [7] | interaction score [8] | interaction score [9] | interaction score [10] | interaction score [11] | interaction score [12] | interaction score [13] | interaction score [14] | interaction score [15] | interaction score [16] | interaction score [17] | interaction score [18] | interaction score [19] | interaction score [20] | Binder |
| --- | --- | --- | --- | --- | --- | --- | --- | --- | --- | --- | --- | --- | --- | --- | --- | --- | --- | --- | --- | --- |
| 0.00696 | 0.472 |  |  |  |  |  |  |  |  |  |  |  |  |  |  |  |  |  |  | DEIQQLEEEISQLEQKNSQLKEKNQQLKY [P3S] |
|  |  | 0.0241 | -1.08 | -0.439 | -1.09 | -0.786 | -1.93 | -0.69 | 0.58 | -1.44 | -0.53 | -1.58 | -0.167 | -1.74 | -1.79 | -1.52 | -0.103 | -1.65 | 1.52 | DKIAALKAKNAALKAKIAALKAKNAALKG [4H3056-AA] |
